Biological target: taxol-polymerized microtubules from bovine brain tubulin (bovine (purified from bovine brain), UniProt Q6B856 1-445)
Assay: cell-based or functional assay

MT activation of Mant-ADP release, stopped flow, 25°C, various MT concentrations with chasing Mg2+-ATP (MTs here from pig brain tubulin; preliminary data): ~1000 fold
B1: Homo sapiens Kif15 motor domain with cover strand and neck linker (Kif15 1-375) (domain or fragment, human, UniProt Q9NS87 1-375, looked up)
chain: MAPGCKTELRSVTNGQSNQPSNEGDAIKVFVRIRPPAERSGSADGEQNLCLSVLSSTSLRLHSNPEPKTFTFDHVADVDTTQESVFATVAKSIVESCMSGYNGTIFAYGQTGSGKTFTMMGPSESDNFSHNLRGVIPRSFEYLFSLIDREKEKAGAGKSFLCKCSFIEIYNEQIYDLLDSASAGLYLREHIKKGVFVVGAVEQVVTSAAEAYQVLSGGWRNRRVASTSMNRESSRSHAVFTITIESMEKSNEIVNIRTSLLNLVDLAGSERQKDTHAEGMRLKEAGNINRSLSCLGQVITALVDVGNGKQRHVCYRDSKLTFLLRDSLGGNAKTAIIANVHPGSRCFGETLSTLNFAQRAKLIKNKAVVNEDTQG
